Results as given in patent US20030077226.

Experiments:
[1] = target: T1, synthetic peptide substrate containing the Swedish KM→NL mutation (SEVNLDAEFR)
T1 chain: SEVNLDAEFR

[2] = target: T2, synthetic peptide substrate containing the wild-type APP β-secretase site (SEVKMDAEFR)
T2 chain: SEVKMDAEFR

B1: Hu-Asp2(b) expressed in CHO cells (protein)
chain: TQHGIRLPLRSGLGGAPLGLRLPRETDEEPEEPGRRGSFVEMVDNLRGKSGQGYYVEMTVGSPPQTLNILVDTGSSNFAVGAAPHPFLHRYYQRQLSSTYRDLRKGVYVPYTQGKWEGELGTDLVSIPHGPNVTVRANIAAITESDKFFINGSNWEGILGLAYAEIARLCGAGFPLNQSEVLASVGGSMIIGGIDHSLYTGSLWYTPIRREWYYEVIIVRVEINGQDLKMDCKEYNYDKSIVDSGTTNLRLPKKVFEAAVKSIKAASSTEKFPDGFWLGEQLVCWQAGTTPWNIFPVISLYLMGEVTNQSFRITILPQQYLRPVEDVATSQDDCYKFAISQSSTGTVMGAVIMEGFYVVFDRARKRIGFAVSACHVHDEFRTAAVEGPFVTLDMEDCGYNIPQTDESTLMTIAYVMAAICALFMLPLCLMVCQWRCLRCLRQQHDDFADDISLLK
proteolysis of peptide substrate (RP-HPLC) [1]: also cleaves the Swedish β-secretase peptide in proteolysis assays using identical assay conditions

B2: Recombinant human Asp2(a) prepared in CHO cells (protein)
chain: ETDEEPEEPGRRGSFVEMVDNLRGKSGQGYYVEMTVGSPPQTLNILVDTGSSNFAVGAAPHPFLHRYYQRQLSSTYRDLRKGVYVPYTQGKWEGELGTDLVSIPHGPNVTVRANIAAITESDKFFINGSNWEGILGLAYAEIARPDDSLEPFFDSLVKQTHVPNLFSLHLCGAGFPLNQSEVLASVGGSMIIGGIDHSLYTGSLWYTPIRREWYYEVIIVRVEINGQDLKMDCKEYNYDKSIVDSGTTNLRLPKKVFEAAVKSIKAASSTEKFPDGFWLGEQLVCWQAGTTPWNIFPVISLYLMGEVTNQSFRITILPQQYLRPVEDVATSQDDCYKFAISQSSTGTVMGAVIMEGFYVVFDRARKRIGFAVSACHVHDEFRTAAVEGPFVTLDMEDCGYNIPQTDESTLMTIAYVMAAICALFMLPLCLMVCQWRCLRCLRQQHDDFADDISLLK
proteolysis of peptide substrate (percent hydrolysis by RP-HPLC), Swedish peptide against wild type after 6 hours [1]: about 10-fold higher than wild type APP | proteolysis of peptide substrate (percent hydrolysis by RP-HPLC) [2]: Maximal proteolysis was seen with the Swedigh β-secretase peptide, which, after 6 hours, was about 10-fold higher than wild type APP
